Measured values reported in publication PMC4390396.

Substrate: O=C(O)c1ccc(O)cc1
Experiment: cells, lysate or membranes

B1: E. coli UbiA (EcUbiA) (Escherichia coli K-12; R60A) (protein)
chain: MEWSLTQNKLLAFHRLMRTDKPIGALLLLWPTLWALWVATPGVPQLWILAVFVAGVWLMAAAGCVVNDYADRKFDGHVKRTANRPLPSGAVTEKEARALFVVLVLISFLLVLTLNTMTILLSIAALALAWVYPFMKRYTHLPQVVLGAAFGWSIPMAFAAVSESVPLSCWLMFLANILWAVAYDTQYAMVDRDDDVKIGIKSTAILFGQYDKLIIGILQIGVLALMAIIGELNGLGWGYYWSILVAGALFVYQQKLIANREREACFKAFMNNNYVGLVLFLGLAMSYWHF
How did the Km turn out when B1 was run?
Its Km is 3000 µM.
